Data as given in patent publication US10913773B2, “Bicyclic peptidyl inhibitor of tumor necrosis factor-alpha” (Ohio State Innovation Foundation, priority 2016, dated 2021).
Read-outs that look alike come from different tables or passages of the source. Starred links: 1 amine or outer side, 2 acyl side, 3 side chain; linkers in the order of their positions; H or OH if unused. Positions of bridges follow the written chain, without caps; N, C: chain ends. Non-standard residues stand in square brackets, D forms with d. Residues, ends and D or L forms follow the SMILES beside them. Primed or numbered codes have the meaning given here. *: point of attachment. FITC = O=C1OC2(c3ccc(O)cc3Oc3cc(O)ccc32)c2ccc(NC(=S)*)cc21; FITC″ = Lys(FITC) = N6-fluorescein-thiocarbamoyl-L-lysine; Trimesoyl = O=C(c1cc(C(=O)[*:2])cc(C(=O)[*:3])c1)[*:1]; NH(1S,2S-2-CONH2-cPent) = NC(=O)[C@H]1CCC[C@@H]1N*; trimesoyl″ = benzene-1,3,5-tricarbonyl scaffold; FITC′ = fluorescein isothiocyanate, on Lys NZ; trimesoyl = benzene-1,3,5-tricarbonyl; β3hV = CC(C)[C@H](N)CC(=O)O; Nle = CCCC[C@H](N)C(=O)O; Dap = NC[C@H](N)C(=O)O; βAla = NCCC(=O)O; Sar = CNCC(=O)O

Legend:
TNFα-TNFR1 interaction = biological target: T1, TNFα-TNFR1 interaction (Homo sapiens, UniProt P01375); assay: ELISA inhibition of TNFα-TNFR1 interaction (immobilized biotinylated TNFα, TNFR1-HRP); assay type: binding
T1 construct: made in house; host or cells: Escherichia coli (TNFα)
Procedure: Inhibition of TNFα-TNRF1 interaction by ELISA was carried out as previously described (Lian, W.; et al., supra).
Because of its high-throughput capability, FA analysis had been used to generate all of the SAR data described above. […] To confirm the SAR data obtained by FA analysis, some of the compounds in Table 5 (as well as new compounds) were resynthesized without the Lys(FITC) label and employed a more sensitive ELISA-based assay to determine the IC50 values for inhibition of the TNFα-TNFR1 interaction. Briefly, biotinylated TNFα was immobilized onto a NeutrAvidin-coated surface. TNFR1 conjugated with horseradish peroxidase (HRP) (0.5 nM) was added along with different concentrations of a peptide inhibitor. After washing, the amount of bound TNFR1-HRP was quantitated by ELISA. […] In agreement with the FA results, either extension at the C-terminus of β-Ala with another amino acid (C1-67 to C1-70) or side-chain modification of β-Ala (C1-71 to C1-73) decreased TNFα binding.

[1] = biological target: T2, Recombinant TNFα containing an N-terminal 13-aa ybbR tag (human, UniProt P01375 77-233, biotin at the ybbR tag in the ELISA assays); assay: FA, FITC-peptide + TNFα titration
T2 construct: Expressed in E. coli; Same construct used unlabelled (FA) and biotinylated on NeutrAvidin (ELISA); also called tumor necrosis factor-alpha; human TNFα; not shown: N-terminal 13-aa ybbR tag
T2 sequence (P01375 77-233): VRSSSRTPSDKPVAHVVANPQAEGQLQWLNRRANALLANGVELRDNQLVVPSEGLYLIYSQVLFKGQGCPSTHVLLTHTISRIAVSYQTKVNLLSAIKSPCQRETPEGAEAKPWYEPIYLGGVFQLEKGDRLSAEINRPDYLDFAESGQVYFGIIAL
Procedure: (§1) The FA values were measured on a Molecular Devices Spectramax M5 spectrofluorimeter, with excitation and emission wavelengths at 485 and 525 nm, respectively. Equilibrium dissociation constants (KD) were determined by plotting the FA values as a function of TNFα concentration and fitting the data to the following equation $$Y = \frac{\left(Amin + \left(Amax \times \frac{Q_b}{Q_f} - Amin\right)\left(\frac{(L+x+K_d) - \sqrt{((L+x+K_d)^2 - 4Lx)}}{2L}\right)\right)}{\left(1 + \left(\frac{Q_b}{Q_f} - 1\right)\left(\frac{(L+x+K_d) - \sqrt{((L+x+K_d)^2 - 4Lx)}}{2L}\right)\right)}$$
(§2) where Y is the measured anisotropy at a given TNFα concentration x; L is the bicyclic peptide concentration; Qb/Qf is the correction fact for dye-protein interaction; Amax is the maximum anisotropy when all the peptides are bound to TNFα, while $Amin$ is the minimum anisotropy. […] The FA values were plotted against the competitor peptide concentration to determine the IC$50$ values.

[2] = biological target: T2, Recombinant TNFα containing an …; assay: FA
Procedure: as §1, §2

[3] = biological target: T2, Recombinant TNFα containing an …; assay: FA, FITC-peptide + TNFα titration; remark: listed apart in the source
Procedure: as §1, §2

[4] = Table 5, peptides without Lys(FITC) label
[5] = inhibition of TNFα-TNFR1 interaction, unlabeled peptides

`CCCC[C@@H]1NC(=O)c2cc3cc(c2)C(=O)NC[C@@H](C(=O)NCCC(=O)NCCC(N)=O)NC(=O)[C@H](Cc2c[nH]cn2)NC(=O)[C@@H](CCCCN)NC(=O)CNC(=O)[C@@H](Cc2c[nH]cn2)NC(=O)[C@H](Cc2c[nH]c4ccccc24)NC(=O)[C@H](CCCCNC3=O)NC(=O)[C@@H](CO)NC(=O)[C@H](Cc2ccc(O)cc2)NC1=O` [Compound C1-67] ([Nle]Y[dS]KW[dH]G[dK]H[Dap][βAla][βAla]-NH2; linker N-4-10 via Trimesoyl) gave an IC50 (TNFα-TNFR1 interaction; [4]) of 1500 ± 900 nM.

`CC(=O)[C@@H](Cc1ccc(O)cc1)NC(=O)[C@@H](CC(=O)O)NC(=O)C(N)CC(=O)O` (stereo partly drawn) [Compound C1-74-5] showed an IC50 (TNFα-TNFR1 interaction; [5]) of 1350 ± 490 nM.

`CCCC[C@@H]1NC(=O)c2cc3cc(c2)C(=O)NC[C@@H](C(=O)NCCC(=O)N[C@H](Cc2ccccc2)C(N)=O)NC(=O)[C@H](Cc2c[nH]cn2)NC(=O)[C@@H](CCCCN)NC(=O)CNC(=O)[C@@H](Cc2c[nH]cn2)NC(=O)[C@H](Cc2c[nH]c4ccccc24)NC(=O)[C@H](CCCCNC3=O)NC(=O)[C@@H](CO)NC(=O)[C@H](Cc2ccc(O)cc2)NC1=O` [Compound C1-70] ([Nle]Y[dS]KW[dH]G[dK]H[Dap][βAla][dF]-NH2; linker N-4-10 via Trimesoyl) showed an IC50 (TNFα-TNFR1 interaction; [4]) of over 10000 nM.

`CC(=O)C[C@H](CCc1ccccc1)NC(=O)[C@@H](CC(N)=O)NC(=O)C(N)Cc1ccccc1F` (stereo partly drawn) [Compound C1-74-4] was tested, and the IC50 (TNFα-TNFR1 interaction; [5]) was 30 nM and the “Improvement of IC50 over C1-74 (fold)” value (TNFα-TNFR1 interaction; relative to C1-74) was about 2 fold.

Work on `CCCC[C@@H]1NC(=O)c2cc3cc(c2)C(=O)NC[C@@H](C(=O)N[C@H]2CCC[C@@H]2C(N)=O)NC(=O)[C@H](Cc2c[nH]cn2)NC(=O)[C@@H](CCCCN)NC(=O)CNC(=O)[C@@H](Cc2c[nH]cn2)NC(=O)[C@H](Cc2c[nH]c4ccccc24)NC(=O)[C@H](CCCCNC3=O)NC(=O)[C@@H](CO)NC(=O)[C@H](Cc2ccc(O)cc2)NC1=O` [Compound C1-72] ([Nle]Y[dS]KW[dH]G[dK]H[Dap]-{NH(1S,2S-2-CONH2-cPent)}; linker N-4-10 via Trimesoyl) yielded an IC50 (TNFα-TNFR1 interaction; [4]) of 110 ± 30 nM.

Work on `CCCC[C@@H]1NC(=O)c2cc3cc(c2)C(=O)NC[C@@H](C(=O)NCCC(N)=O)NC(=O)[C@H](Cc2c[nH]cn2)NC(=O)[C@@H](CCCCN)NC(=O)CNC(=O)[C@@H](Cc2c[nH]cn2)NC(=O)[C@H](Cc2c[nH]c4ccccc24)NC(=O)[C@H](CCCCNC3=O)NC(=O)[C@@H](CO)NC(=O)[C@H](Cc2ccc(O)cc2)NC1=O` [Compound C1-66] ([Nle]Y[dS]KW[dH]G[dK]H[Dap][βAla]-NH2; linker N-4-10 via Trimesoyl) yielded an IC50 (TNFα-TNFR1 interaction; [5]) of 85 nM.

Work on `CCCC[C@@H]1NC(=O)c2cc3cc(c2)C(=O)NC[C@@H](C(=O)N[C@H](CC(N)=O)C(C)C)NC(=O)[C@H](Cc2c[nH]cn2)NC(=O)[C@@H](CCCCN)NC(=O)CNC(=O)[C@@H](Cc2c[nH]cn2)NC(=O)[C@H](Cc2c[nH]c4ccccc24)NC(=O)[C@H](CCCCNC3=O)NC(=O)[C@@H](CO)NC(=O)[C@H](Cc2ccc(O)cc2)NC1=O` [Compound C1-71] ([Nle]Y[dS]KW[dH]G[dK]H[Dap][β3hV]-NH2; linker N-4-10 via Trimesoyl) yielded an IC50 (TNFα-TNFR1 interaction; [4]) of 2400 ± 1300 nM.

`CCCC[C@@H]1NC(=O)c2cc3cc(c2)C(=O)NC[C@@H](C(=O)NCCC(=O)N[C@@H](Cc2ccccc2)C(N)=O)NC(=O)[C@H](Cc2c[nH]cn2)NC(=O)[C@@H](CCCCN)NC(=O)CNC(=O)[C@@H](Cc2c[nH]cn2)NC(=O)[C@H](Cc2c[nH]c4ccccc24)NC(=O)[C@H](CCCCNC3=O)NC(=O)[C@@H](CO)NC(=O)[C@H](Cc2ccc(O)cc2)NC1=O` [Compound C1-69] ([Nle]Y[dS]KW[dH]G[dK]H[Dap][βAla]F-NH2; linker N-4-10 via Trimesoyl) was tested, and the IC50 (TNFα-TNFR1 interaction; [4]) was 1300 ± 1100 nM.

For [Nle]Y[dS]KY[dF]G[dK]H[Dap]K(FITC′)-NH2 (bridge N-4-10 via trimesoyl″; not fully specified (N-terminus)) [C1-11], the Kd [1] was 1500 nM, the “fold reduction in affinity against D-Ala at position-3” value [2] was about 2 fold and the Kd [3] was 1500 nM.

With [Nle]Y[dA]KY[dF]G[dK]H[Dap]K(FITC)-NH2 (linker N-4-10 via trimesoyl″) [C1-5] the “fold better binding against C1” value [2] was about 2 fold and the Kd [3] was 850 nM.

With [Nle]Y[dS]KY[dH]G[dK]H[Dap]K(FITC)-NH2 (linker N-4-10 via trimesoyl″) [C1-30] the Kd [1] was 760 nM, the “fold improvement in affinity against D-Phe at position-6” value [2] was about 2 fold and the Kd [3] was 760 nM.

[Nle]Y[dS]KY[dH]A[dK]H[Dap]K(FITC)-NH2 (linker N-4-10 via trimesoyl″) [C1-44] was tested, and the “fold effect on affinity against Gly-7” value [2] was 2 fold and the Kd [3] was 320 nM.

In the case of [Nle]Y[dS]KW[dH]L[dK]H[Dap]K(FITC)-NH2 (linker N-4-10 via trimesoyl″) [C1-47], the “fold loss of binding against Gly-7” value [2] is reported as 3 to 6 fold and the Kd [3] is reported as 1700 nM.

For [Nle]Y[dS]KW[dH]G[dK]F[Dap]K(FITC)-NH2 (linker N-4-10 via trimesoyl″) [C1-50], the “fold reduction in affinity against His at position-9” value [2] was about 30 fold and the Kd [3] was 7500 nM.

In the case of [Nle]Y[dS]KW[dH]S[dK]H[Dap]K(FITC)-NH2 (linker N-4-10 via trimesoyl″) [C1-45], the “fold effect on affinity against Gly-7” value [2] is reported as 2 fold and the Kd [3] is reported as 420 nM.

In the case of [Nle]Y[dS]KW[dH]V[dK]H[Dap]K(FITC)-NH2 (linker N-4-10 via trimesoyl″) [C1-46], the “fold loss of binding against Gly-7” value [2] is reported as 3 to 6 fold and the Kd [3] is reported as 880 nM.

With [Nle]Y[dS]KY[dH][Sar][dK]H[Dap]K(FITC)-NH2 (linker N-4-10 via trimesoyl″) [C1-43] the “fold effect on affinity against Gly-7” value [2] was 2 fold and the Kd [3] was 330 nM.

GY[dA]KY[dF]G[dK]H[Dap]K(FITC′)-NH2 (bridge N-4-10 via trimesoyl″; not fully specified (N-terminus)) [C1-1] was tested, and the “fold decrease in TNFα binding against C1 (Phg at position-1)” value (shortened to “fold decrease in TNFα binding against C1”) [2] was at least 5 fold and the Kd [3] was 7100 nM.

In the case of SY[dA]KY[dF]G[dK]H[Dap]K(FITC)-NH2 (linker N-4-10 via trimesoyl″) [C1-6], the “fold decrease in TNFα binding against C1” value [2] is reported as at least 5 fold and the Kd [3] is reported as 6200 nM.

With DY[dA]KY[dF]G[dK]H[Dap]K(FITC″)-NH2 (linker N-4-10 via trimesoyl) [C1-8] the “fold decrease in TNFα binding against C1” value [2] was at least 5 fold and the Kd [3] was 7000 nM.

In the case of NY[dA]KY[dF]G[dK]H[Dap]K(FITC″)-NH2 (linker N-4-10 via trimesoyl) [C1-9], the “fold decrease in TNFα binding against C1” value [2] is reported as at least 5 fold and the Kd [3] is reported as 7900 nM.

With TY[dA]KY[dF]G[dK]H[Dap]K(FITC″)-NH2 (linker N-4-10 via trimesoyl) [C1-7] the “fold decrease in TNFα binding against C1” value [2] was at least 5 fold and the Kd [3] was 7200 nM.
